This assay concerns the target GP1 receptor-binding domain of Lujo virus (LUJVGP1), residues 74-199 (Lujo virus (LUJV), UniProt C5ILC1 74-199). Nature of the assay: crystal structure.

B1: first CUB domain of neuropilin-2 (NRP2), binding site fragment (domain or fragment)
chain: PCGGRLNSKDAGYITSPGYPQDYPSHQNCEWIVYAPEPNQKIVLNFNPHFEIEKHDCKYDFIEIRDGDSESADLLGKHCGNIAPPTIISSGSMLYIKFTSDYARQGAGFSLRYEIFKTGS
As for B1, the binding result is “binds”.
